Assay [1] deals with T1, recombinant human TfR-1 (human, UniProt P02786 89-760, limits assumed).
T1 construct: also called hTfR-1; hTfR1
The assay can be described thus: ELISA on coated hTfR1, crude ExpiHEK expression media, normalised to TXP1. The method, then:
FIG. 6. Expression level and hTfR1 binding of 20 single-region variants of TXP1 measured by ELISA. Variants were designed to remove potential MHCII binding motifs in each region separately with the mutations described in Table 5. Each deimmunized variant was transiently expressed in 0.5 ml scale in ExpiHEK cells and the crude media were tested by ELISA for hTfRIbinding and expression level in comparison to parental TXP1. The data were normalized to TXP1 and the variants with binding or expression >0.5-fold were evaluated further.
Mutating the primary anchoring residue in each MHCII binding motif was prioritized to minimize manipulation of the sequence with maximal reduction in binding score. Alternative positions were also considered when replacement of an anchor residue might disrupt the protein structure or where removing the anchor residue was insufficient to eliminate MHCII binding. Based on the in silico analyses, 20 single-region deimmunized variants of TXP1 (6 in region 1, 10 in region 2, and 4 in region 3) were genetically synthesized and evaluated (Table 5). Expression and hTfR1 binding were measured in crude media from transfected ExpiHEK cells (FIG. 6). […] Region 3 required all three substitutions to eliminate predicted MHCII binding, and all three mutations individually and when combined (TXP1-R3-1-4) were expressed well and retained parental levels of TfR-1 binding.

For assay [2], the target named is T2, recombinant cynomolgus TfR-1 (cynomolgus, UniProt H9EXL1 89-760 (rhesus entry)).
T2 construct: also called cTfR-1; cTfR1
The assay can be described thus: SPR Biacore T200, multi-cycle kinetics, 1:1 model.

In assay [3] the target is T2, recombinant cynomolgus TfR-1. The assay can be described thus: ELISA, plate-coated recombinant cTfR1, anti-hFc HRP detection. The method, then:
(§1) TfR1 ELISA. Nunc MaxiSorp plates were coated with 100 ul of 1 μg/ml of in-house purified recombinant human, cynomolgus TfR1 or HSA and incubated at 4° C. overnight. Plates were incubated with blocking buffer (2.5% non-fat dry milk in PBST) for 1 hr at RT. Serial dilutions of TXP1, TXPID1 or TXP1D4 were mixed with non-fat dry milk in PBST to a final concentration of 2.5% and incubated for 30 min. Blocked VNAR antibody solutions (100 μl) were transferred to the blocked plates and incubated for 1 hr. Plates were washed with PBST and incubated with anti-hFc HRP-conjugated antibody diluted 1:5,000 (Sigma) in blocking buffer for 30 min. Plates were washed and developed with SureBlue TMB substrate. Were indicated the velocity of colorimetric reaction development was measured in the kinetic mode at 370 nm and the maximum peak was used for quantitation (Vmax at 370 nm). Alternatively, the TMB reaction was stopped with 1% HCl and absorbance was measured at 450 nm (OD at 450 nm).

For assay [4], the target named is T1, recombinant human TfR-1. The assay can be described thus: ELISA, plate-coated recombinant hTfR1, anti-hFc HRP detection. The method, then:
as §1

For assay [5], the target named is T1, recombinant human TfR-1. The assay can be described thus: SPR Biacore T200, His-tagged TfR1 captured by anti-His, multi-cycle kinetics, 1:1 model. The method, then:
Binding kinetics. Binding kinetics of TXP1, TXP1D1 and TXP1D4 were determined by surface plasmon resonance (SPR) using a Biacore T200 (GE Healthcare). A His-capture kit (GE Healthcare) was used to immobilize anti-His antibodies on CM5 chips (as recommended by the manufacturer). His-tagged recombinant hTfR1 in 0.1% BSA in HBS-EP+ buffer (GE Healthcare) was captured at flow rate 10 μl/min. Analyte binding was measured using the multi-cycle kinetic SPR method. Starting analyte concentrations at 400 nM and serially diluted in 1:4 in seven steps. Association and dissociation were measured for 360s and 1500s respectively, with flow rate at 30 μl/min. The chips were regenerated in 10 mM Glycine-HCl, pH 1.5. Sensorgrams were fitted using 1:1 binding model and kinetic constants determined using Biacore T200 Evaluation software (Cytiva).

Assay [6] concerns the target T3, cell surface human TfR1 on hCMEC/D3 and SH-SY5Y cells (human, UniProt P02786 1-760).
T3 construct: whole, on cells; Endogenous receptor on the cell lines; also called cell surface TfR1; cell-surface hTfR1
The assay can be described thus: flow cytometry on hCMEC/D3 cells on ice, binding to cell surface TfR1, anti-hFc Alexa647. The method, then: Functional activity of the fully deimmunized variants was assessed using the hCMEC/D3 human endothelial cell line and the SY-SH5Y human neuronal cell line. Binding to hCMEC/D3 cells was assessed by incubation with serial antibody dilutions for 1h on ice to avoid internalization. The cells were fixed and binding to cell surface TfR1 was measured by flow cytometry. […] Internalization via cell-surface hTfR1 was assessed using the hCMEC/D3 and SY-SH5Y cell lines by incubation with the antibodies for 1 hour at 37° C.
Flow cytometry. hCMEC/D3 cells were seeded onto V-bottom 96-well plates at a density of 1×10⁴ cells/well. All incubations were carried out on ice to prevent internalization. After blocking in PBS containing 10% BSA (FACS buffer), cells were incubated with serial dilutions of TXP1. Cells were stained with propidium iodine (PI; Biolegend) for 20 min, followed by anti-hFc conjugated to Alexa647 diluted 1:300 (Jackson ImmunoResearch) for 30 min. After fixation in 4% PFA for 15 min, the cells were analyzed on a CytoFlex flow cytometer (Beckman Coulter). Gating of cells stained with secondary antibody alone was used to set the negative threshold for and the fluorescence intensity of approximately 1000 cells per condition was measured. EC50 values were calculated using a four parametric non-linear regression model.

T1 sequence (P02786 89-760 limits assumed): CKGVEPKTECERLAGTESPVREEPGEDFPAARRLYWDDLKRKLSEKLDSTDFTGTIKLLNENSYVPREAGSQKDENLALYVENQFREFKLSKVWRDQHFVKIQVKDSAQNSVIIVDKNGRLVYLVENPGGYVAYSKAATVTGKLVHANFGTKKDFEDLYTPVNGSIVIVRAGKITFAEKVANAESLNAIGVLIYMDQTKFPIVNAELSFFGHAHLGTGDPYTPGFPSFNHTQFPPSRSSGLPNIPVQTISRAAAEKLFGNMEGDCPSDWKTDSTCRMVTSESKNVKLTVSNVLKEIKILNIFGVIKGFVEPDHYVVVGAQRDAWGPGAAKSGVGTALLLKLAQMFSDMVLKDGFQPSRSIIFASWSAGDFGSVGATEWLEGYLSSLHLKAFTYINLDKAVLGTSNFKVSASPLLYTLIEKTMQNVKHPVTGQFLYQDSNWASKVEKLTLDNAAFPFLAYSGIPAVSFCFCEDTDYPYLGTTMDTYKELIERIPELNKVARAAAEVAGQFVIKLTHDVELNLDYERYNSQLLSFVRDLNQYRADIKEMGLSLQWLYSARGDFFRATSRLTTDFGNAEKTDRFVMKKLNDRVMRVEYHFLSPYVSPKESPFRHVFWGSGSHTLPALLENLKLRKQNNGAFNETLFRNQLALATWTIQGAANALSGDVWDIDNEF
T2 sequence (chain, as listed by the source): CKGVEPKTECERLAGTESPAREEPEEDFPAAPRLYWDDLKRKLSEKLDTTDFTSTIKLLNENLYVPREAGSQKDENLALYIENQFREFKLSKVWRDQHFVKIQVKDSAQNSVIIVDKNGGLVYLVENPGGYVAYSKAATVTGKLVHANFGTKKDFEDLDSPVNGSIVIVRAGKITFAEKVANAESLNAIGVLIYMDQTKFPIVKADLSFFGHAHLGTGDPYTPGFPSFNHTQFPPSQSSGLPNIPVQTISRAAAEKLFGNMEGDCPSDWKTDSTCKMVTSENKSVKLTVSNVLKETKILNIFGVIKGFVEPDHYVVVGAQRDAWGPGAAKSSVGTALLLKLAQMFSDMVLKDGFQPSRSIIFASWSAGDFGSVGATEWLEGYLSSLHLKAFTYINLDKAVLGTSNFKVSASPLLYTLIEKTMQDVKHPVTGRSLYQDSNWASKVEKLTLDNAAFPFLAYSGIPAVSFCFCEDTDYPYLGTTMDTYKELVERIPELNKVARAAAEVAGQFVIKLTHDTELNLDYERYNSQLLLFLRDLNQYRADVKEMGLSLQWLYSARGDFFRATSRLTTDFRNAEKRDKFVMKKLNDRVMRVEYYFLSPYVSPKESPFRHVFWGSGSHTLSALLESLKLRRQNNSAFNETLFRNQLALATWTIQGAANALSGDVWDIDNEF
T3 sequence (P02786 whole entry): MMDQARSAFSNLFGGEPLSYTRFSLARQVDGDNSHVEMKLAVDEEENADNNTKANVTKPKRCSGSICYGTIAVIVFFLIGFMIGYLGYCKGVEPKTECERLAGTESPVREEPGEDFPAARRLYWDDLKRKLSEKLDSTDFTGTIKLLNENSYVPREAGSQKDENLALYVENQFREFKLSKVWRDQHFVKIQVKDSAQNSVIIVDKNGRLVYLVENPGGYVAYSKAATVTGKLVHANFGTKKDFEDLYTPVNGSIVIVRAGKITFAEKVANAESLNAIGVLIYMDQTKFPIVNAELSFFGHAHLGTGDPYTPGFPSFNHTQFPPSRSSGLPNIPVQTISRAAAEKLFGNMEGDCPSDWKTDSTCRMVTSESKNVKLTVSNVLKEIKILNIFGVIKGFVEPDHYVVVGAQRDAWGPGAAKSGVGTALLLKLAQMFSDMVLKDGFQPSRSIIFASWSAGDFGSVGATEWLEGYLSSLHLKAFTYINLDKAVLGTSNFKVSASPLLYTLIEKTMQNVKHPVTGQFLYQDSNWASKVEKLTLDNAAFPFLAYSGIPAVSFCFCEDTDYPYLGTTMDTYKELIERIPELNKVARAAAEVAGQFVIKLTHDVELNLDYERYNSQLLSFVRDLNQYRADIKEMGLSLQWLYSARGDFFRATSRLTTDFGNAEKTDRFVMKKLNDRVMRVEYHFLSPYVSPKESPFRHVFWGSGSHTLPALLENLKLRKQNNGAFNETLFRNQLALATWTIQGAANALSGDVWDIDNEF

B1: TXP1-R1-1 (Fc fusion)
chain: ARVDQTPQTATKETGESLTINCVLRDSNCALSSTYWYRKKSGSTNEENISKGGRYVETVNSGSKSFSLKINDLTVEDSGTYRCNVVGTWCMSWRDVYGGGTAVTVNA
notes: Single-region variant of TXP1; tested in crude expression media; not shown: human IgG1 Fc (hFc) with AEF mutations incl. deletion of G236 (printed AG236)
Regarding B1, in the assay with recombinant human TfR-1 [1], the “hTfR1 binding relative to parental TXP1 (fold)” value stood at 0.5 fold.

B2: TXP1-R2-4 (Fc fusion)
chain: ARVDQTPQTITKETGESLTINCVLRDSNCALSSTYWYRKKSGSTNEENISKGGRSVETVNSGSKSFSLKINDLTVEDSGTYRCNVVGTWCMSWRDVYGGGTAVTVNA
notes: as for B1
With B2, the “hTfR1 binding relative to parental TXP1 (fold)” value with recombinant human TfR-1 [1] is 0.5 fold.

B3: TXP1-R2-5 (Fc fusion)
chain: ARVDQTPQTITKETGESLTINCVLRDSNCALSSTYWYRKKSGSTNEENISKGGRTVETVNSGSKSFSLKINDLTVEDSGTYRCNVVGTWCMSWRDVYGGGTAVTVNA
notes: as for B1
Consider B3, for which the “hTfR1 binding relative to parental TXP1 (fold)” value with recombinant human TfR-1 [1] is 0.5 fold.

B4: TXP1-R1-3 (Fc fusion)
chain: ARVDQTPQTSTKETGESLTINCVLRDSNCALSSTYWYRKKSGSTNEENISKGGRYVETVNSGSKSFSLKINDLTVEDSGTYRCNVVGTWCMSWRDVYGGGTAVTVNA
notes: as for B1
With B4, the “hTfR1 binding relative to parental TXP1 (fold)” value with recombinant human TfR-1 [1] was 0.5 fold.

B5: TXP1-R2-9 (Fc fusion)
chain: ARVDQTPQTITKETGESLTINCVLRDSNCALSSTYWYRKKSGSTNEENISKGGKYVETVESGSKSFSLKINDLTVEDSGTYRCNVVGTWCMSWRDVYGGGTAVTVNA
notes: as for B1
Regarding B5, the “hTfR1 binding relative to parental TXP1 (fold)” value in the assay with recombinant human TfR-1 [1] amounted to 0.5 fold.

B6: TXP1-R2-6 (Fc fusion)
chain: ARVDQTPQTITKETGESLTINCVLRDSNCALSSTYWYRKKSGSTNEENISKGGRYVETVDSGTKSFSLKINDLTVEDSGTYRCNVVGTWCMSWRDVYGGGTAVTVNA
notes: as for B1
Consider B6, for which the “hTfR1 binding relative to parental TXP1 (fold)” value with recombinant human TfR-1 [1] amounted to 0.5 fold.

B7: TXP1D4 (Fc fusion)
chain: ARVDQTPQTATKETGESLTINCVLRDSNCALSSTYWYRKKSGSTNEENISKGGKYVETVESGSKSFSLKINDLTVEDSGTYRCNVVGTWCMSWRDVSGDGTVVTVNA
notes: Fully deimmunized variant of TXP1, VNAR-hFc format; also called TXPID4; not shown: human IgG1 Fc (hFc) with AEF mutations incl. deletion of G236 (printed AG236)
Turning to B7, the Kd in assay [2] came out at 1.7 nM; in the assay with recombinant human TfR-1 [5], 3 nM. The koff was 0.00014 s⁻¹ in assay [2] and 0.00026 s⁻¹ with recombinant human TfR-1 [5]. Moreover, the kon (in assay [2]; in the assay with recombinant human TfR-1 [5]) was 87000 M⁻¹ s⁻¹ each time. For the same molecule, the EC50 in assay [3] is 3 nM; with recombinant human TfR-1 [4] it was 4.1 nM; in assay [6] it was 2.1 nM.

B8: TXP1D1 (Fc fusion)
chain: ARVDQTPQTATKETGESLTINCVLRDSNCALSSTYWYRKKSGSTNEENISKGGRYVETVDSGTKSFSLKINDLTVEDSGTYRCNVVGTWCMSWRDVSGDGTVVTVNA
notes: Fully deimmunized variant of TXP1, VNAR-hFc format; also called TXPID1; not shown: human IgG1 Fc (hFc) with AEF mutations incl. deletion of G236 (printed AG236)
Consider B8, for which the equilibrium dissociation constant (Kd) in assay [2] was 2.2 nM; with recombinant human TfR-1 [5], 4.6 nM. Besides, the results for the koff (in assay [2]; with recombinant human TfR-1 [5]) were 0.00016 s⁻¹ and 0.00031 s⁻¹, respectively. The kon in assay [2] is 73000 M⁻¹ s⁻¹; with recombinant human TfR-1 [5] it was 67000 M⁻¹ s⁻¹. The concentration giving a half-maximal response (EC50) was found to be 2.2 nM in assay [3], 3.5 nM in the assay with recombinant human TfR-1 [4] and 1.6 nM in assay [6].

B9: TXP1-R2-10 (Fc fusion)
chain: ARVDQTPQTITKETGESLTINCVLRDSNCALSSTYWYRKKSGSTNEENISKGGKYVETVQSGSKSFSLKINDLTVEDSGTYRCNVVGTWCMSWRDVYGGGTAVTVNA
notes: as for B1
Turning to B9, the “hTfR1 binding relative to parental TXP1 (fold)” value with recombinant human TfR-1 [1] was 0.5 fold.

B10: TXP1-R1-4 (Fc fusion)
chain: ARVDQTPQTTTKETGESLTINCVLRDSNCALSSTYWYRKKSGSTNEENISKGGRYVETVNSGSKSFSLKINDLTVEDSGTYRCNVVGTWCMSWRDVYGGGTAVTVNA
notes: as for B1
With B10, the “hTfR1 binding relative to parental TXP1 (fold)” value with recombinant human TfR-1 [1] turned out to be 0.5 fold.

B11: TXP1-R2-2 (Fc fusion)
chain: ARVDQTPQTITKETGESLTINCVLRDSNCALSSTYWYRKKSGSTNEENISKGGRHVETVNSGSKSFSLKINDLTVEDSGTYRCNVVGTWCMSWRDVYGGGTAVTVNA
notes: as for B1
On to B11, for which the “hTfR1 binding relative to parental TXP1 (fold)” value with recombinant human TfR-1 [1] was found to be 0.5 fold.

B12: TXP1-R2-3 (Fc fusion)
chain: ARVDQTPQTITKETGESLTINCVLRDSNCALSSTYWYRKKSGSTNEENISKGGRNVETVNSGSKSFSLKINDLTVEDSGTYRCNVVGTWCMSWRDVYGGGTAVTVNA
notes: as for B1
Turning to B12, the “hTfR1 binding relative to parental TXP1 (fold)” value with recombinant human TfR-1 [1] was 0.5 fold.

B13: TXP1-R1-2 (Fc fusion)
chain: ARVDQTPQTETKETGESLTINCVLRDSNCALSSTYWYRKKSGSTNEENISKGGRYVETVNSGSKSFSLKINDLTVEDSGTYRCNVVGTWCMSWRDVYGGGTAVTVNA
notes: as for B1
For the molecule B13, the “hTfR1 binding relative to parental TXP1 (fold)” value in the assay with recombinant human TfR-1 [1] was found to be 0.5 fold.

The values above are taken from patent US20250122298A1 (OSSIANIX, published 2025).
